± gives the standard error.
Assay: background-corrected fluorescence of 3'-dye-labeled ssDNA relative to brightest sequence (3'-GCGCG) (fraction); higher = brighter dye fluorescence (less quenching)
How it was run: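 By light-directed phosphoramidite synthesis, single-stranded DNA ending in a 3' Cy3 or Cy5 dye beside each of 1024 permuted pentamers was built on glass slides. Scanning at 532 or 635 nm took place before and after overnight ethylenediamine/ethanol deprotection. Data are means of 10 features per array over at least 3 syntheses. Fluorescence is corrected for unlabeled-oligo background and scaled to the brightest sequence.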

Sequence	background-corrected fluorescence (dye: Cy3 (3' terminal))	background-corrected fluorescence (dye: Cy5 (3' terminal))
TTTTTGCATGATGATGATGATTTTTTTTTTTTTTTTCCCC [CCCCT]	0.33 ± 0.022	0.243 ± 0.015
TTTTTGCATGATCAGCATGATTTTTTTTTTTTTTTTCGTC [CTGCT]	0.467 ± 0.034	0.352 ± 0.03
TTTTTTGCGCATGATGATGCTTTTTTTTTTTTTTTATCCA [ACCTA]	0.476 ± 0.012	0.373 ± 0.038
TTTTTTGCGCATGATGCGCATTTTTTTTTTTTTTTATCAT [TACTA]	0.511 ± 0.02	0.408 ± 0.028
TTTTTTGATGATCATGATGCTTTTTTTTTTTTTTTCCGCA [ACGCC]	0.539 ± 0.034	0.475 ± 0.024
TTTTTTGCGCATGATGAGCATTTTTTTTTTTTTTTATCCT [TCCTA]	0.447 ± 0.015	0.348 ± 0.02
TTTTTTCATGATCAGCAGCATTTTTTTTTTTTTTTGCGTT	0.571 ± 0.032	0.422 ± 0.024
TTTTTGCATGATGAGCATGATTTTTTTTTTTTTTTTCCTC [CTCCT]	0.351 ± 0.02	0.266 ± 0.019
TTTTTTGCTCATGCTCATGATTTTTTTTTTTTTTTAGAGC [CGAGA]	0.565 ± 0.022	0.435 ± 0.046
TTTTTGCAGCATGCTGCGCATTTTTTTTTTTTTTTTTAAT [TAATT]	0.576 ± 0.018	0.412 ± 0.019
TTTTTGCATGAGCATGATGCTTTTTTTTTTTTTTTTCTCA [ACTCT]	0.456 ± 0.019	0.348 ± 0.022
TTTTTTGAGCATGATGCTGCTTTTTTTTTTTTTTTCTCAA [AACTC]	0.52 ± 0.042	0.395 ± 0.02
TTTTTTCATCATGCTGCTCATTTTTTTTTTTTTTTGGAAG [GAAGG]	0.593 ± 0.033	0.445 ± 0.03
TTTTTTCATGAGCATGCGCATTTTTTTTTTTTTTTGCTAT [TATCG]	0.52 ± 0.019	0.376 ± 0.035
TTTTTTGCTGATGATGCGCATTTTTTTTTTTTTTTACCAT	0.499 ± 0.026	0.364 ± 0.024
TTTTTTCATCAGCAGCATGCTTTTTTTTTTTTTTTGGTTA [ATTGG]	0.53 ± 0.015	0.446 ± 0.071
TTTTTTCAGCATCAGCATGCTTTTTTTTTTTTTTTGTGTA [ATGTG]	0.595 ± 0.019	0.434 ± 0.027
TTTTTTGATGAGCATGATGATTTTTTTTTTTTTTTCCTCC	0.342 ± 0.03	0.273 ± 0.021
TTTTTTGAGCATGATCAGCATTTTTTTTTTTTTTTCTCGT [TGCTC]	0.567 ± 0.015	0.416 ± 0.024
TTTTTTGATCATGCTCATGCTTTTTTTTTTTTTTTCGAGA [AGAGC]	0.695 ± 0.032	0.53 ± 0.037
TTTTTTGATGATCATCATGATTTTTTTTTTTTTTTCCGGC [CGGCC]	0.623 ± 0.025	0.511 ± 0.041
TTTTTGCATGCTGATCATCATTTTTTTTTTTTTTTTACGG [GGCAT]	0.697 ± 0.037	0.514 ± 0.04
TTTTTTCATGCGCATGATGATTTTTTTTTTTTTTTGATCC [CCTAG]	0.398 ± 0.022	0.294 ± 0.027

Sequence	background-corrected fluorescence (dye: Cy3 (3' terminal))	background-corrected fluorescence (dye: Cy5 (3' terminal))
TTTTTTGATCATGCTGCTGCTTTTTTTTTTTTTTTCGAAA [AAAGC]	0.576 ± 0.032	0.475 ± 0.057
TTTTTTGCTGATGCTGAGCATTTTTTTTTTTTTTTACACT [TCACA]	0.51 ± 0.018	0.35 ± 0.033
TTTTTTGATGCTGCGCATCATTTTTTTTTTTTTTTCAATG [GTAAC]	0.53 ± 0.029	0.364 ± 0.026
TTTTTTCATGAGCATCATGCTTTTTTTTTTTTTTTGCTGA [AGTCG]	0.5917 ± 0.0054	0.525 ± 0.036
TTTTTGCATGCTGCTGCTGATTTTTTTTTTTTTTTTAAAC [CAAAT]	0.447 ± 0.028	0.336 ± 0.028
TTTTTTGATCATGAGCATCATTTTTTTTTTTTTTTCGCTG [GTCGC]	0.534 ± 0.014	0.423 ± 0.043
TTTTTTGATCATCATGATGCTTTTTTTTTTTTTTTCGGCA [ACGGC]	0.612 ± 0.015	0.493 ± 0.034
TTTTTTGCTCATCATGATGATTTTTTTTTTTTTTTAGGCC [CCGGA]	0.479 ± 0.037	0.368 ± 0.064
TTTTTTGATCATCATGCTGCTTTTTTTTTTTTTTTCGGAA [AAGGC]	0.656 ± 0.032	0.548 ± 0.058
TTTTTGCATGAGCATGATCATTTTTTTTTTTTTTTTCTCG [GCTCT]	0.506 ± 0.02	0.376 ± 0.039
TTTTTGCATGCTGCTGCTGCTTTTTTTTTTTTTTTTAAAA [AAAAT]	0.631 ± 0.013	0.52 ± 0.028
TTTTTTGATCATCATCAGCATTTTTTTTTTTTTTTCGGGT [TGGGC]	0.7 ± 0.013	0.616 ± 0.068
TTTTTGCATGATGATCATGCTTTTTTTTTTTTTTTTCCGA [AGCCT]	0.581 ± 0.026	0.552 ± 0.031
TTTTTTGATGCTCATGATCATTTTTTTTTTTTTTTCAGCG [GCGAC]	0.622 ± 0.036	0.502 ± 0.043
TTTTTTGCGCATGCGCATCATTTTTTTTTTTTTTTATATG [GTATA]	0.531 ± 0.013	0.407 ± 0.024
TTTTTTGCGCATCAGCATGATTTTTTTTTTTTTTTATGTC [CTGTA]	0.454 ± 0.021	0.351 ± 0.046
TTTTTTGCTCATCAGCATGCTTTTTTTTTTTTTTTAGGTA [ATGGA]	0.564 ± 0.027	0.465 ± 0.06
TTTTTTGCTGATGCTGATGCTTTTTTTTTTTTTTTACACA	0.469 ± 0.022	0.374 ± 0.031
TTTTTGCATCATGCTGCTGATTTTTTTTTTTTTTTTGAAC [CAAGT]	0.461 ± 0.024	0.345 ± 0.021
TTTTTGCATGATGCGCATCATTTTTTTTTTTTTTTTCATG [GTACT]	0.524 ± 0.054	0.377 ± 0.019
TTTTTTGATGAGCATGCGCATTTTTTTTTTTTTTTCCTAT [TATCC]	0.486 ± 0.018	0.361 ± 0.028
TTTTTGCATGATCATGCTGCTTTTTTTTTTTTTTTTCGAA [AAGCT]	0.632 ± 0.0073	0.524 ± 0.043
TTTTTTGCTGATCATGCGCATTTTTTTTTTTTTTTACGAT [TAGCA]	0.519 ± 0.035	0.429 ± 0.045

Sequence	background-corrected fluorescence (dye: Cy3 (3' terminal))	background-corrected fluorescence (dye: Cy5 (3' terminal))
TTTTTGCATGCGCATCATGCTTTTTTTTTTTTTTTTATGA [AGTAT]	0.625 ± 0.025	0.579 ± 0.047
TTTTTGCATGATGCTGATGATTTTTTTTTTTTTTTTCACC [CCACT]	0.382 ± 0.011	0.265 ± 0.016
TTTTTTGCTGCTGATGATCATTTTTTTTTTTTTTTAACCG [GCCAA]	0.545 ± 0.036	0.42 ± 0.035
TTTTTTGATGATGCTGATCATTTTTTTTTTTTTTTCCACG [GCACC]	0.513 ± 0.025	0.386 ± 0.021
TTTTTTGCGCATCATCATGATTTTTTTTTTTTTTTATGGC [CGGTA]	0.545 ± 0.043	0.445 ± 0.026
TTTTTTGCTGCGCAGCATCATTTTTTTTTTTTTTTAATTG [GTTAA]	0.561 ± 0.03	0.381 ± 0.025
TTTTTTCATCATCAGCATGCTTTTTTTTTTTTTTTGGGTA [ATGGG]	0.614 ± 0.0069	0.517 ± 0.03
TTTTTTCATGCTCAGCATGCTTTTTTTTTTTTTTTGAGTA [ATGAG]	0.603 ± 0.026	0.486 ± 0.035
TTTTTTGATGAGCATCAGCATTTTTTTTTTTTTTTCCTGT [TGTCC]	0.584 ± 0.0059	0.459 ± 0.038
TTTTTTCATGCTGAGCATGCTTTTTTTTTTTTTTTGACTA [ATCAG]	0.491 ± 0.021	0.416 ± 0.029
TTTTTTGATGCGCAGCATGCTTTTTTTTTTTTTTTCATTA [ATTAC]	0.554 ± 0.021	0.398 ± 0.027
TTTTTTGCTGATCAGCATGCTTTTTTTTTTTTTTTACGTA [ATGCA]	0.61 ± 0.016	0.465 ± 0.024
TTTTTTGATGCTCATGCTCATTTTTTTTTTTTTTTCAGAG [GAGAC]	0.595 ± 0.022	0.462 ± 0.03
TTTTTTCATGATGCTCATGATTTTTTTTTTTTTTTGCAGC [CGACG]	0.508 ± 0.0059	0.402 ± 0.045
TTTTTTGATGATCATGATCATTTTTTTTTTTTTTTCCGCG [GCGCC]	0.961 ± 0.026	0.944 ± 0.034
TTTTTTGCTGCGCATCATGATTTTTTTTTTTTTTTAATGC [CGTAA]	0.515 ± 0.016	0.4 ± 0.035
TTTTTGCAGCAGCAGCAGCATTTTTTTTTTTTTTTTTTTT	0.489 ± 0.032	0.34 ± 0.015
TTTTTTGCTGCTGATGCTGATTTTTTTTTTTTTTTAACAC [CACAA]	0.421 ± 0.035	0.306 ± 0.021
TTTTTGCATGCTCATCATGCTTTTTTTTTTTTTTTTAGGA [AGGAT]	0.747 ± 0.018	0.617 ± 0.032
TTTTTGCAGCAGCATGCTGCTTTTTTTTTTTTTTTTTTAA [AATTT]	0.569 ± 0.036	0.439 ± 0.024
TTTTTTGCTGATCATGATGCTTTTTTTTTTTTTTTACGCA	0.525 ± 0.032	0.445 ± 0.028
TTTTTTGATCATGCTGATCATTTTTTTTTTTTTTTCGACG [GCAGC]	0.602 ± 0.013	0.491 ± 0.024

— the supplement of paper PMC9428881
